Measured values from the nanobody polyreactivity screen of Harvey et al. (2022).

Test: yeast display, Sf9 membrane polyspecificity reagent, FACS + sequencing; frameworks hold sequencing errors
Outline: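 Galactose-induced (36–48 hours) yeast carrying a synthetic nanobody display library were exposed to 10% biotinylated, detergent-solubilized Sf9 membrane reagent at 4 °C for 1 hour. FACS followed streptavidin microbead enrichment, using low and high (top ~1%) gates for expression (anti-HA) and reagent binding (streptavidin). Colony PCR, MiSeq 2 × 250 sequencing and CDR-length filtering followed. Labels for polyreactivity reflect the gate of origin.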

Sequence | polyreactivity (PSR sort gate)
QVQLVESGGGLVQAGGSLRLSCAASGSIFRRNPMGWYRQAPGKESELVAAISSSGGSTYYADSVKGGFTISRDIAKNTFYLQMNSVKPEDTAVYYCAARFGPQYRFDYWGQGTQVTVSS | high polyreactivity
QVQLVESGGGLVQAGGSLRLSCAASGRTFYGYAMGWYRQAPGKERELVAVITRDGSTNYADSVKGRFTISRDNAKNTVYLQMNSLKPEDTAVYDCAAERLAYRVRWRYNQEDYWGQGTQVTVSS | high polyreactivity
QDQLEESGGGLVQAGGSLRLSCAASGNIFPRNAMGWYRQAAGKERELVAAISASGDNTYYADSVKGRFTISRDNAKNTVYLQMNSLKPEDTAVYYCSAGTFYESIQPYESVAYYYWGQGTQVTVSS | low polyreactivity
QVQLVESGGGLVQAGGSLRLSCAASGSTFTDYDMGWYRQAPGKERELVAAITSGGSTNYADSVKGRFTISRDNAKNTVYLQMNSLKPEDTAVYYCAAADADRKYDYWGQGTQVTVSS | low polyreactivity
QVQLVESGGGLVQAGGSLRLSCAASGRTFAGYAMGWYRQAPGKERELVAAITNGGSTKYADSVKGRFTISRDNAKNTVYLQMNSLKPEDTAVYYCNARKRFYSGNTLMYYWGQGTQVTLSS | high polyreactivity
QVQLVESGGGLVQAGGSLRLSCAASGITFSPYTRGWYRQATGKERELVAAINDGAITYYADSVKGRFTISRDNAKNTVYLQMNSQKPEDTAVYYCAAAAWGTDPFSTDYASYDYWGQVTQVTVSS | low polyreactivity
QVQLVESGGGLVQAGRSLRLICAASGRTFVYYAMGWYRPAPGKERELVAAITWSGGRTYYADSVKGRFTISRDNAKNTVYLQMNSLKQEDTAVYYCNRDQWPWESGYAYNYWGQGTQVTVSS | low polyreactivity
QVQLVESGGGLVQAGGSLRLSCAASGGTLYRNVMGWYRQAPGKERELVAAISKSGGSTYYADSVKGRFTISRDNAKNTFYLQMNSLKPEDTAVYYCDVSHNRGYDSWGQGTQVTVSS | high polyreactivity
QVQLVDSGGGLVQAGGSLRLSCAAYGSTFGPYAMGWYRQAPGKERELVAAIRVSGGSTYYADSVKGRFTISRDNAKNTVYLQMNSLKPEDTAVYYCIRDVMTFNYDYWGQGTQVTVSS | low polyreactivity
QVQLVVSGGGLDQARGSLSLSCAASGRNFTSYAMGWYRQAPWKERELVAAISWSVGSTYYADSVKGRFTISRDNAKNTVYLQMNSLKPEDTSVYYCNAVYPSVYPVSTRYYWGQGTQVTVSS | high polyreactivity
QVQLVESGGGLVQAGGSLRLSCAASGYIFGAYAMGWYRPAPGKERELVAGITASGDSTYYADSVKGRFTISRDNAKNTVYLQMNSLKPEDTAVYYCNAQPDIGLYDRQWKEPYEYWGQGTQVTVSS | low polyreactivity
QVQREESGGGLVQAGGRLRLTCAASGSIFGYYVMGWYRQAPGKERELVAAITRSGSTYYADSVKGRFTISRDNAKNTVYLQMNSLKPEDTAVYYCYADVYWPGTPYTHDYWGQGTQVTVSS | low polyreactivity
QVQLVESGGGLVQAGGSLSLSCAASGSIFPHYAMGWYRQAPGKERELVAAISRSGTSTYYADSVKGRFTISRDNAKNTVYLQMNSLNPEDTAVYYCATGYRRDHDDYWGQGTQVTVSS | high polyreactivity
QVQLVESGGGLVQAGGSLRLSCAASGFTFLINAMGWYRQAPGKERELVAAIRSGGSTNYADSVKGRFTISRDNAKNTVYFQMNSLKPEDTAVYYCAARRYYPYKYRYGYWGQGTQVTVSS | high polyreactivity
QVQLVESGGGLVQAGGSLRLSCAASGITFHKYAMGWYRQAPGKESELVAAISSGGGTYYADSVKGRFTISRDNAKNTVYLQMNSLKPEDTAVYYCNADIEWLWVRYDYWGQGTQVTVSS | high polyreactivity
QVQLVESGGGLVQAGGSLRLSCAASGITFYHYAMGWYRQAPGKERELVAAISSDDNTNYADSVKGRFTISRDNEKNTVYLQMNSLNPEVTAVYYCNKRSLKNEPRYDYWGQGTQVTVSS | high polyreactivity
QVQLVESGGGLVQAGGSLRLSCAASGSIFRYNAMGWYRQAPGKERELVAVIRGTSGDTYYADSVKGRFTISRDNAKNTVYLQMNSLKPEDTAVYYCAAQLAGASYSHSNYSDWFDYWGQGTQVTVSS | low polyreactivity
